Here are results for 15 molecules from paper PMC9044407 (Protein Science : A Publication of the Protein Society, 2022).

Broadly, the Kd is the equilibrium constant for the complex coming apart. Read a high Kd as lower affinity. By stoichiometry N is commonly meant a count of units in the complex or per binding partner.

Data set [1] deals with T1, Suv3 (human, UniProt Q8IYB8 48-786).
T1 sequence: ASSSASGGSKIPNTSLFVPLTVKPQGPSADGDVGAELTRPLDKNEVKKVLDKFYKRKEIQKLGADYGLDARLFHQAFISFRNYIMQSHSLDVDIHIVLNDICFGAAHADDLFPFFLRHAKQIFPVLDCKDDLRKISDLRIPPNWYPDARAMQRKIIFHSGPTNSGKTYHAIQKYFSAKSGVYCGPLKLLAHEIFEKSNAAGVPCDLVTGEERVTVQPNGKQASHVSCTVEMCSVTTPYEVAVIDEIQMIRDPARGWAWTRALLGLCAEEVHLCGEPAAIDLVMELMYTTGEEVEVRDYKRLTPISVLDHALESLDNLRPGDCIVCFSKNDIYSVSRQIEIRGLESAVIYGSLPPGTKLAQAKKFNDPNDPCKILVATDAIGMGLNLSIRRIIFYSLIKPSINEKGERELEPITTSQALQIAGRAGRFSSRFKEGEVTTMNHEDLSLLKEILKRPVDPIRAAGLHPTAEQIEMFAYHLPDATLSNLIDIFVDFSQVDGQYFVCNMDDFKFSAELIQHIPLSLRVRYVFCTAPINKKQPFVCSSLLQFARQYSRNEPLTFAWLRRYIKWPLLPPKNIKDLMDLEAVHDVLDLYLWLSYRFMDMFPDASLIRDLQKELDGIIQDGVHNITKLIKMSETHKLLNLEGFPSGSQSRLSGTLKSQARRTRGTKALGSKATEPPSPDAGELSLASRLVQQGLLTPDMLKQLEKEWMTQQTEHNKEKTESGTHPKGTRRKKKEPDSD
In words: fluorescence polarization.

Data set [2] has as its target T2, Suv3ΔC (human, UniProt Q8IYB8 48-722, del723-786).
T2 sequence: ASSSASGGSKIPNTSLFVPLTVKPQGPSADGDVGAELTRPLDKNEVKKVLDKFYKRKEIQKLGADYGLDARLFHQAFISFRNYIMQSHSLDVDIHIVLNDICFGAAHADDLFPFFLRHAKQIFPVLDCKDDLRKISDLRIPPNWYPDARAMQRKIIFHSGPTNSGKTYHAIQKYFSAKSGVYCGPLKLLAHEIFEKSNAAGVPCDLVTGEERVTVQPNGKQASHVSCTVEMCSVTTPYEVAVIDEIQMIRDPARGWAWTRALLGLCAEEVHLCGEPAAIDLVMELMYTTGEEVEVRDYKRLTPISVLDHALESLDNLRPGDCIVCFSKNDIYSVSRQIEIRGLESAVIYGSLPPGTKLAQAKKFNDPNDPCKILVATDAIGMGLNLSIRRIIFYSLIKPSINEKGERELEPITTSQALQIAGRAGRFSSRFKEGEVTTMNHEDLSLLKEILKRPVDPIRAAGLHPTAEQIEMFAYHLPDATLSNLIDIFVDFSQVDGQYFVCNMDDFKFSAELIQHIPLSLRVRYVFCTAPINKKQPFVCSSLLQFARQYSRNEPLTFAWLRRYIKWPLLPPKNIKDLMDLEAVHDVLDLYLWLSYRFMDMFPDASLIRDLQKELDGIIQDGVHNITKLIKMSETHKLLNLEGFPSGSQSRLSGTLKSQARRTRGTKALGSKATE
In words: fluorescence polarization. (In fluorescence polarisation assays a small probe gives low polarisation when free and higher when bound to something large.)

Data set [3] has as its target T1, Suv3. In words: fluorescence polarization. The source holds these as a separate data set.
Data set [4] concerns the target T1, Suv3. Description: fluorescence polarization. The source holds these as a separate data set.
The target of data set [5] is T1, Suv3. In words: fluorescence polarization. The source holds these as a separate data set.
The target in data set [6] is T1, Suv3. Description: fluorescence polarization. This is another data set of the same source.
The target in data set [7] is T1, Suv3. In words: fluorescence polarization. The source holds these as a separate data set.
Data set [8] deals with the molecule itself.
Data set [9] addresses T3, human Suv3 (residues 48–786), N-terminal His-tagged (human, UniProt Q8IYB8 48-786).
T3 sequence (looked up): T1 sequence
In words: SEC. A general note: SEC sorts molecules by how far they enter the pores of the column.

Substitutions are numbered along the chain they refer to. Like-named read-outs stand apart in the source and are kept apart here.

B1: dsRNA 20-nt 3' overhang (dsRNA)
RNA 1: GGUGUGGUGGCAUACGUGCAGACGC
RNA 2: GCGUCUGCACGUAUGCCACCACACCAGGAGAGGAGAGGAGAGGAG
For B1, the Kd in data set [1] was around 0.018 µM.

B2: blunt-end dsDNA (dsDNA)
DNA 1: GGTGTGGTGGCATACGTGCAGACGC
DNA 2: GCGTCTGCACGTATGCCACCACACC
On to B2, for which, in [1], the Kd is 0.0639 ± 0.0015 µM.

B3: dsDNA 10-nt 3' overhang (dsDNA)
DNA 1: GGTGTGGTGGCATACGTGCAGACGC
DNA 2: GCGTCTGCACGTATGCCACCACACCAGGAGAGGAG
Regarding B3, the figures for the Kd in data set [1] and in data set [2] were 0.0115 ± 0.0002 µM and 0.099 ± 0.0086 µM, respectively.

B4: dsRNA 10-nt 3' overhang (dsRNA)
RNA 1: GGUGUGGUGGCAUACGUGCAGACGC
RNA 2: B3 DNA 2 with T4U, T6U, T12U, T14U
Regarding B4, the Kd in data set [3] worked out at 0.0326 ± 0.0006 µM; in [4] it was 0.0622 ± 0.0022 µM; in data set [5] it was 0.0193 ± 0.0005 µM; in data set [1], 0.0187 ± 0.0007 µM.

B5: DNA-RNA hybrid 10-nt 3' overhang (DNA:RNA)
DNA: GGTGTGGTGGCATACGTGCAGACGC
RNA: B3 DNA 2 with T4U, T6U, T12U, T14U
Take B5: the Kd in [1] amounted to 0.0131 ± 0.0004 µM; in [2], 0.11 ± 0.0095 µM.

B6: dsDNA 10-nt 5' overhang (dsDNA)
DNA 1: GGTGTGGTGGCATACGTGCAGACGC
DNA 2: GAGGAGAGGAGCGTCTGCACGTATGCCACCACACC
Take B6: in data set [6], the binding signal is 8 fold lower affinity than 3' overhang dsDNA.

B7: dsRNA 10-nt 5' overhang (dsRNA)
RNA 1: GGUGUGGUGGCAUACGUGCAGACGC
RNA 2: B6 DNA 2 with T14U, T16U, T22U, T24U
B7: the binding result in [7] was “no binding”.

B8: DNA-RNA hybrid 10-nt 5' overhang (DNA:RNA)
DNA: GGTGTGGTGGCATACGTGCAGACGC
RNA: B6 DNA 2 with T14U, T16U, T22U, T24U
For B8, the binding signal in [6] is 23 fold lower affinity than 3' overhang DNA-RNA hybrid.

B9: dsRNA 5-nt 3' overhang (dsRNA)
RNA 1: GGUGUGGUGGCAUACGUGCAGACGC
RNA 2: GCGUCUGCACGUAUGCCACCACACCAGGAG
On to B9, for which the Kd in data set [1] was around 0.065 µM.
Turning to GGUGUGGUGGCAUACGUGCAGACGC (ssRNA) [ssRNA 25 nt], in [1], the Kd was 0.0531 ± 0.0007 µM.

B10: human PNPase (residues 46–783), C-terminal His-tagged (enzyme, UniProt Q8TCS8 46-783, looked up)
chain: AVAVDLGNRKLEISSGKLARFADGSAVVQSGDTAVMVTAVSKTKPSPSQFMPLVVDYRQKAAAAGRIPTNYLRREIGTSDKEILTSRIIDRSIRPLFPAGYFYDTQVLCNLLAVDGVNEPDVLAINGASVALSLSDIPWNGPVGAVRIGIIDGEYVVNPTRKEMSSSTLNLVVAGAPKSQIVMLEASAENILQQDFCHAIKVGVKYTQQIIQGIQQLVKETGVTKRTPQKLFTPSPEIVKYTHKLAMERLYAVFTDYEHDKVSRDEAVNKIRLDTEEQLKEKFPEADPYEIIESFNVVAKEVFRSIVLNEYKRCDGRDLTSLRNVSCEVDMFKTLHGSALFQRGQTQVLCTVTFDSLESGIKSDQVITAINGIKDKNFMLHYEFPPYATNEIGKVTGLNRRELGHGALAEKALYPVIPRDFPFTIRVTSEVLESNGSSSMASACGGSLALMDSGVPISSAVAGVAIGLVTKTDPEKGEIEDYRLLTDILGIEDYNGDMDFKIAGTNKGITALQADIKLPGIPIKIVMEAIQQASVAKKEILQIMNKTISKPRASRKENGPVVETVQVPLSKRAKFVGPGGYNLKKLQAETGVTISQVDEETFSVFAPTPSAMHEARDFITEICKDDQEQQLEFGAVYTATITEIRDTGVMVKLYPNMTAVLLHNTQLDQRKIKHPTALGLEVGQEIQVKYFGRDPADGRMRLSRKVLQSPATTVVRTLNDRSSIVMGEPISQSSSNSQ
As for B10, in data set [8], the “stoichiometry N” value was determined as 3. Also, the binding result in [9] is “binds”.

B11: dsRNA 15-nt 3' overhang (dsRNA)
RNA 1: GGUGUGGUGGCAUACGUGCAGACGC
RNA 2: GCGUCUGCACGUAUGCCACCACACCAGGAGAGGAGAGGAG
B11: in [1], the Kd was around 0.018 µM.

B12: blunt-end DNA-RNA hybrid (DNA:RNA)
DNA: GGTGTGGTGGCATACGTGCAGACGC
RNA: GCGUCUGCACGUAUGCCACCACACC
As to B12, the Kd in [1] turned out to be 0.103 ± 0.0059 µM.
In turn, GGTGTGGTGGCATACGTGCAGACGC (ssDNA) [ssDNA 25 nt] yielded a Kd in data set [1] of 0.044 ± 0.0017 µM. This Kd is about 2.3-fold lower than that of the molecule before.

B13: blunt-end dsRNA (dsRNA)
RNA 1: GGUGUGGUGGCAUACGUGCAGACGC
RNA 2: GCGUCUGCACGUAUGCCACCACACC
On to B13, for which, in data set [7], the binding result is on record as “no binding”.
